Experimental data: patent publication US20140105914A1 (ANTITOPE, published 2014)

T1: human CTLA4 expressed on the surface of T-cells (human, UniProt P16410 36-223)
T1 sequence (looked up): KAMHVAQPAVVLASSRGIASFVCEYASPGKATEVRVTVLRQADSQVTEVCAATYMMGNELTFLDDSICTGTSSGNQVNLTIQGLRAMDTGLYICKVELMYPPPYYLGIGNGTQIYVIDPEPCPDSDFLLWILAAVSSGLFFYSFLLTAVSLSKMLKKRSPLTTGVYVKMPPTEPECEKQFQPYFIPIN

T2: Recombinant CTLA4-fusion protein comprising the extracellular domain of human CTLA4 fused to the human IgG1 … (human, UniProt P16410 36-161)
T2 construct: extracellular domain; Bought reagent; Coated on ELISA plates at 0.5 ug/ml; also called CTLA4-Fc; CTLA4-Ig; not shown: human IgG1 constant domain (Fc); a Factor Xa site lies between CTLA4 and Fc, since the fusion was cle
T2 sequence (looked up): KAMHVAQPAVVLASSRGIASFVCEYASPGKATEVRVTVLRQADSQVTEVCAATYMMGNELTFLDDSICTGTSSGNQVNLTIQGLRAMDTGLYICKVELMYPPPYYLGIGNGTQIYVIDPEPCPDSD


How the values were obtained:
[1] = target: T1, human CTLA4 expressed on the surface of …; assay: cell-based or functional assay
[2] = target: T2, Recombinant CTLA4-fusion protein …; assay: ELISA on coated CTLA4-Fc
[3] = target: T1, human CTLA4 expressed on the surface of …; assay: flow cytometry on stimulated human CD4+ T cells, antibody at 5 ug/ml
Experimental: In order to determine whether the lead monoclonal antibodies bound to CTLA4 expressed on the surface of T-cells, a flow cytometric analysis was performed. Human peripheral T cells were isolated from human PBMC (peripheral blood mononuclear cells) and stimulated to enhance expression of CTLA4. CD4+ cells were purified from PBMC using a CD4⁺ T Cell Isolation Kit (Miltenyi Biotec, Bisley, UK), plated out in a 24 well plate (1×10⁶ cells/well) in AIM-V Medium (Invitrogen, Paisley, UK) and incubated at 37° C. overnight. Cells were stimulated with lonomycin (1 μg/ml) and PMA (phorbol 12-myristate 13-acetate) (50 ng/ml) and incubated 4 h at 37° C. Cells were washed once in AIM-V medium, fixed in PBS containing 2% formaldehyde for 15 min, and resuspended in FACS buffer (D-PBS containing 1% BSA, 0.05% sodium azide and 0.1% Saponin) at 2×10⁶ cells/ml and incubated 30 min at 4° C.
2×10⁵ cells were stained using either a 1 in 10 dilution of anti-CTLA4-PE conjugated antibody (BNI3) (Abcam, Cambridge, UK) as a positive control or with 5 μg/ml of individual anti-CTLA4 monoclonal antibodies together with a 1 in 50 dilution of anti-mouse IgG-PE conjugated antibody (Sigma). Mouse IgG (Sigma) was also included as separate controls for the different murine isotypes present within the lead monoclonal antibodies. […] Instrument settings were determined by analysis of relevant isotype control antibodies. […]

[4] = target: T1, human CTLA4 expressed on the surface of …; assay: flow cytometry on CTLA4 expressed on T cells
[5] = target: T2, Recombinant CTLA4-fusion protein …; assay: CTLA4 binding ELISA on coated CTLA4-Fc

| Binder | IFN-gamma secretion in human mixed lymphocyte reaction (T cell activation), antibody at 150 ug/ml, compared to MDX010 [1] | binding result [2] | binding result [3] | binding result [4] | binding result [5] |
| --- | --- | --- | --- | --- | --- |
| lead humanised variant VH5/VK4 anti-CTLA4 antibody (antibody, V domains shown) VH: QVQLVQSGAELKKPGASVKVSCKASGYTFTSYWINWIRQAPGQGLEWIGRIAPGSGTTYYNEVFKGRVTITVDKSTSTAYMELSSLRSEDTAVYFCARGDYGSYWGQGTLVTVSS VL: EIVLTQSPATLSLSPGERATLSCSASSSISYMHWFQQRPGQSPRRWIYDTSKLASGVPARFSGSGSGTDYTLTISSLEPEDFATYYCHQRTSYPLTFGQGTKLEIKR | 2 fold |  |  |  |  |
| murine monoclonal antibody 3B10 (subclone 3B10-4F7) (antibody, V domains shown, Mouse hybridoma antibody with a kappa light chain; also called 3B10-6E3) VH: EVQLQQFGAELVKPGASVKMSCKASGYTFTDYNMDWVRQSHGKSLEWIGNINPNSESTSYNQKFKGKATLTVDKSSSTAYMELRSLTSDDTAVYYCTRDGNRYDAWFAYWGQGTLVTVSS VL: QIVLTQSPAIMSASPGEKVTMTCSASSSVTYMHWFQQKPGTSPKLWIYSTSILASGVPARFSGSGSGTSYSLTISRMEAEDAATYYCQQRTSYPLTFGTGTKLELK |  | binds | binds |  |  |
| chimeric 8H5 human IgG1 antibody (antibody, V domains shown, Biotinylated when used as the labelled competitor in Example 6., Gamma 4 versions were also cloned; also called 8H5 chimeric antibody; h8H5 parent IgG1) VH: QVQLQQSGDDLVKPGASVKLSCKASGYTFTSYWINWIKQRPGQGLEWIGRIAPGSGTTYYNEVFKGKATLTVDKYSSTAYIQLSSLSSEDSAVYFCARGDYGSYWGQGTLVTVSS VL: QIVLTQSPAIMSASPGEKVTMTCSASSSISYMHWFQQKPGTSPKRWIYDTSKLASGVPARFSGSGSGTSYSLTINSMEAEDAATYYCHQRTSYPLTFGAGTKLELK |  |  |  | binds | binds |

More lines, now with the values ahead:

| IFN-gamma secretion in human mixed lymphocyte reaction (T cell activation), antibody at 150 ug/ml, compared to MDX010 [1] | binding result [2] | binding result [3] | binding result [4] | binding result [5] | Binder |
| --- | --- | --- | --- | --- | --- |
|  | binds | binds |  |  | murine monoclonal antibody 8H5 (subclone 8H5-1B1) (antibody, V domains shown, Mouse hybridoma antibody with a kappa light chain; also called 8H5-1A1) VH: QVQLQQSGDDLVKPGASVKLSCKASGYTFTSYWINWIKQRPGQGLEWIGRIAPGSGTTYYNEVFKGKATLTVDKYSSTAYIQLSSLSSEDSAVYFCARGDYGSYWGQGTLVTVSS VL: QIVLTQSPAIMSASPGEKVTMTCSASSSISYMHWFQQKPGTSPKRWIYDTSKLASGVPARFSGSGSGTSYSLTINSMEAEDAATYYCHQRTSYPLTFGAGTKLELK |
|  |  |  | binds | binds | chimeric 3B10 human IgG1 antibody (antibody, V domains shown, Biotinylated when used as the labelled competitor in Example 6., Gamma 4 versions were also cloned; also called 3B10 chimeric antibody; parental 3B10 chimeric antibody) VH: EVQLQQFGAELVKPGASVKMSCKASGYTFTDYNMDWVRQSHGKSLEWIGNINPNSESTSYNQKFKGKATLTVDKSSSTAYMELRSLTSDDTAVYYCTRDGNRYDAWFAYWGQGTLVTVSS VL: QIVLTQSPAIMSASPGEKVTMTCSASSSVTYMHWFQQKPGTSPKLWIYSTSILASGVPARFSGSGSGTSYSLTISRMEAEDAATYYCQQRTSYPLTFGTGTKLELK |
